# Assay results published in patent US20240209076A1 (KODIAK SCIENCES, published 2024).
# Target: human IL-6 (human, UniProt P05231 30-212)
# Test: SPR Biacore, supernatant, Protein A capture, 37 C
# Procedure: Those four positions were selected based on their tolerance for mutations as observed in bacterial and mammalian screens. […] These cultures were centrifuged and supernatants containing secreted antibodies were harvested and diluted in HBS-EP+ running buffer (1:20 ratio).
# Antibodies were captured on a Protein A chip (GE) by injecting 1:20 cell supernatant dilutions at 10 μL/min for 60 seconds. […] The sensor chip was regenerated by a 60 seconds injection of 10 mM Glycine pH 1.7 at the flow rate of 50 μL/min. […] For this setup, 1 μg/mL of purified antibody was injected over a Protein A chip at 10 μL/min for 25 seconds. […] The sensor chip was regenerated by a 60 seconds injection of 10 mM Glycine pH 1.7 at flow rate of 50 μL/min. Data analysis for supernatant and purified samples were performed using BIAevaluation software (GE). All sensorgrams were double reference subtracted and fit using a 1:1 Langmuir binding model.
# Sequence of human IL-6 (P05231 30-212 limits assumed): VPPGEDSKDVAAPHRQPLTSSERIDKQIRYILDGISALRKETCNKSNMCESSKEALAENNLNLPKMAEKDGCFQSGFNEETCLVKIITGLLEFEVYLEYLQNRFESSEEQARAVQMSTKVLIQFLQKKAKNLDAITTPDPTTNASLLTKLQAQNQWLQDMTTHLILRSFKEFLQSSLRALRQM
Kd [nM],koff [s⁻¹],kon [M⁻¹ s⁻¹],Binder
3.61,,,"Anti-IL-6 antibody, heavy chain S35H, G66D, Q99D / light chain M32L, M50D, N52S, M88Q (antibody, IgG1, V domains shown, IgG1; variable domains only; VL is variant III) VH: EVQLVESGGGLVQPGGSLRLSCAASGFTFSPFAMHWVRQAPGKGLEWVAKISPGGSWTYYSDTVTDRFTFSLDTSKSTAYLQMNSLRAEDTAVYYCARDLWGYYALDIWGQGTLVTVSS VL: DIQLTQSPSSLSASVGDRVTITCSASISVSYLYWYQQKPGKAPKLLIYDDSSLASGVPSRFSGSGSGTDFTLTISSLQPEDFATYYCQQWSGYPYTFGQGTKVEIK"
3.39,0.00166,489000,"Anti-IL-6 antibody, heavy chain S35H, G66D, Q99F / light chain WT (antibody, IgG1, V domains shown, IgG1; variable domains only) VH: EVQLVESGGGLVQPGGSLRLSCAASGFTFSPFAMHWVRQAPGKGLEWVAKISPGGSWTYYSDTVTDRFTFSLDTSKSTAYLQMNSLRAEDTAVYYCARFLWGYYALDIWGQGTLVTVSS VL: DIQLTQSPSSLSASVGDRVTITCSASISVSYMYWYQQKPGKAPKLLIYDMSNLASGVPSRFSGSGSGTDFTLTISSLQPEDFATYYCMQWSGYPYTFGQGTKVEIK"
0.961,0.0033,3.43e+06,"Anti-IL-6 antibody, heavy chain S35H, G66D, Q99G / light chain WT (antibody, IgG1, V domains shown, IgG1; variable domains only) VH: EVQLVESGGGLVQPGGSLRLSCAASGFTFSPFAMHWVRQAPGKGLEWVAKISPGGSWTYYSDTVTDRFTFSLDTSKSTAYLQMNSLRAEDTAVYYCARGLWGYYALDIWGQGTLVTVSS VL: DIQLTQSPSSLSASVGDRVTITCSASISVSYMYWYQQKPGKAPKLLIYDMSNLASGVPSRFSGSGSGTDFTLTISSLQPEDFATYYCMQWSGYPYTFGQGTKVEIK"
0.0997,0.000113,1.14e+06,"Anti-IL-6 antibody, heavy chain S35H, G66D, Q99F / light chain M32L, M50D, N52S, M88Q (antibody, IgG1, V domains shown, IgG1; variable domains only; VL is variant III) VH: EVQLVESGGGLVQPGGSLRLSCAASGFTFSPFAMHWVRQAPGKGLEWVAKISPGGSWTYYSDTVTDRFTFSLDTSKSTAYLQMNSLRAEDTAVYYCARFLWGYYALDIWGQGTLVTVSS VL: DIQLTQSPSSLSASVGDRVTITCSASISVSYLYWYQQKPGKAPKLLIYDDSSLASGVPSRFSGSGSGTDFTLTISSLQPEDFATYYCQQWSGYPYTFGQGTKVEIK"
2.34,0.00302,1.29e+06,"Anti-IL-6 antibody, heavy chain S35H, G66D, Q99D / light chain WT (antibody, IgG1, V domains shown, IgG1; variable domains only) VH: EVQLVESGGGLVQPGGSLRLSCAASGFTFSPFAMHWVRQAPGKGLEWVAKISPGGSWTYYSDTVTDRFTFSLDTSKSTAYLQMNSLRAEDTAVYYCARDLWGYYALDIWGQGTLVTVSS VL: DIQLTQSPSSLSASVGDRVTITCSASISVSYMYWYQQKPGKAPKLLIYDMSNLASGVPSRFSGSGSGTDFTLTISSLQPEDFATYYCMQWSGYPYTFGQGTKVEIK"
3.91,0.00193,493000,"Anti-IL-6 antibody, heavy chain S35H, G66D, Q99E / light chain WT (antibody, IgG1, V domains shown, IgG1; variable domains only) VH: EVQLVESGGGLVQPGGSLRLSCAASGFTFSPFAMHWVRQAPGKGLEWVAKISPGGSWTYYSDTVTDRFTFSLDTSKSTAYLQMNSLRAEDTAVYYCARELWGYYALDIWGQGTLVTVSS VL: DIQLTQSPSSLSASVGDRVTITCSASISVSYMYWYQQKPGKAPKLLIYDMSNLASGVPSRFSGSGSGTDFTLTISSLQPEDFATYYCMQWSGYPYTFGQGTKVEIK"
2.34,0.000657,280000,"Anti-IL-6 antibody, heavy chain S35H, G66D, Q99R / light chain M32L, M50D, N52S, M88Q (antibody, IgG1, V domains shown, IgG1; variable domains only; VL is variant III) VH: EVQLVESGGGLVQPGGSLRLSCAASGFTFSPFAMHWVRQAPGKGLEWVAKISPGGSWTYYSDTVTDRFTFSLDTSKSTAYLQMNSLRAEDTAVYYCARRLWGYYALDIWGQGTLVTVSS VL: DIQLTQSPSSLSASVGDRVTITCSASISVSYLYWYQQKPGKAPKLLIYDDSSLASGVPSRFSGSGSGTDFTLTISSLQPEDFATYYCQQWSGYPYTFGQGTKVEIK"
0.244,0.000262,1.07e+06,"Anti-IL-6 antibody, heavy chain S35H, G66D, Q99L / light chain WT (antibody, IgG1, V domains shown, IgG1; variable domains only) VH: EVQLVESGGGLVQPGGSLRLSCAASGFTFSPFAMHWVRQAPGKGLEWVAKISPGGSWTYYSDTVTDRFTFSLDTSKSTAYLQMNSLRAEDTAVYYCARLLWGYYALDIWGQGTLVTVSS VL: DIQLTQSPSSLSASVGDRVTITCSASISVSYMYWYQQKPGKAPKLLIYDMSNLASGVPSRFSGSGSGTDFTLTISSLQPEDFATYYCMQWSGYPYTFGQGTKVEIK"
3.86,0.00335,868000,"Anti-IL-6 antibody, heavy chain S35H, G66D, Q99I / light chain WT (antibody, IgG1, V domains shown, IgG1; variable domains only) VH: EVQLVESGGGLVQPGGSLRLSCAASGFTFSPFAMHWVRQAPGKGLEWVAKISPGGSWTYYSDTVTDRFTFSLDTSKSTAYLQMNSLRAEDTAVYYCARILWGYYALDIWGQGTLVTVSS VL: DIQLTQSPSSLSASVGDRVTITCSASISVSYMYWYQQKPGKAPKLLIYDMSNLASGVPSRFSGSGSGTDFTLTISSLQPEDFATYYCMQWSGYPYTFGQGTKVEIK"
1.7,0.00136,802000,"Anti-IL-6 antibody, heavy chain S35H, G66D, Q99H / light chain WT (antibody, IgG1, V domains shown, IgG1; variable domains only) VH: EVQLVESGGGLVQPGGSLRLSCAASGFTFSPFAMHWVRQAPGKGLEWVAKISPGGSWTYYSDTVTDRFTFSLDTSKSTAYLQMNSLRAEDTAVYYCARHLWGYYALDIWGQGTLVTVSS VL: DIQLTQSPSSLSASVGDRVTITCSASISVSYMYWYQQKPGKAPKLLIYDMSNLASGVPSRFSGSGSGTDFTLTISSLQPEDFATYYCMQWSGYPYTFGQGTKVEIK"
4.71,0.00089,189000,"Anti-IL-6 antibody, heavy chain S35H, G66D, Q99E / light chain M32L, M50D, N52S, M88Q (antibody, IgG1, V domains shown, IgG1; variable domains only; VL is variant III) VH: EVQLVESGGGLVQPGGSLRLSCAASGFTFSPFAMHWVRQAPGKGLEWVAKISPGGSWTYYSDTVTDRFTFSLDTSKSTAYLQMNSLRAEDTAVYYCARELWGYYALDIWGQGTLVTVSS VL: DIQLTQSPSSLSASVGDRVTITCSASISVSYLYWYQQKPGKAPKLLIYDDSSLASGVPSRFSGSGSGTDFTLTISSLQPEDFATYYCQQWSGYPYTFGQGTKVEIK"
15.1,0.00333,220000,"Anti-IL-6 antibody, heavy chain S35H, G66D, Q99K / light chain WT (antibody, IgG1, V domains shown, IgG1; variable domains only) VH: EVQLVESGGGLVQPGGSLRLSCAASGFTFSPFAMHWVRQAPGKGLEWVAKISPGGSWTYYSDTVTDRFTFSLDTSKSTAYLQMNSLRAEDTAVYYCARKLWGYYALDIWGQGTLVTVSS VL: DIQLTQSPSSLSASVGDRVTITCSASISVSYMYWYQQKPGKAPKLLIYDMSNLASGVPSRFSGSGSGTDFTLTISSLQPEDFATYYCMQWSGYPYTFGQGTKVEIK"
0.368,0.00146,3.97e+06,"Anti-IL-6 antibody, heavy chain S35H, G66D, Q99K / light chain M32L, M50D, N52S, M88Q (antibody, IgG1, V domains shown, IgG1; variable domains only; VL is variant III) VH: EVQLVESGGGLVQPGGSLRLSCAASGFTFSPFAMHWVRQAPGKGLEWVAKISPGGSWTYYSDTVTDRFTFSLDTSKSTAYLQMNSLRAEDTAVYYCARKLWGYYALDIWGQGTLVTVSS VL: DIQLTQSPSSLSASVGDRVTITCSASISVSYLYWYQQKPGKAPKLLIYDDSSLASGVPSRFSGSGSGTDFTLTISSLQPEDFATYYCQQWSGYPYTFGQGTKVEIK"
11.4,0.00161,141000,"Anti-IL-6 antibody, heavy chain S35H, G66D, Q99R / light chain WT (antibody, IgG1, V domains shown, IgG1; variable domains only) VH: EVQLVESGGGLVQPGGSLRLSCAASGFTFSPFAMHWVRQAPGKGLEWVAKISPGGSWTYYSDTVTDRFTFSLDTSKSTAYLQMNSLRAEDTAVYYCARRLWGYYALDIWGQGTLVTVSS VL: DIQLTQSPSSLSASVGDRVTITCSASISVSYMYWYQQKPGKAPKLLIYDMSNLASGVPSRFSGSGSGTDFTLTISSLQPEDFATYYCMQWSGYPYTFGQGTKVEIK"
1.35,0.00169,1.25e+06,"Anti-IL-6 antibody, heavy chain S35H, G66D, Q99P / light chain M32L, M50D, N52S, M88Q (antibody, IgG1, V domains shown, IgG1; variable domains only; VL is variant III) VH: EVQLVESGGGLVQPGGSLRLSCAASGFTFSPFAMHWVRQAPGKGLEWVAKISPGGSWTYYSDTVTDRFTFSLDTSKSTAYLQMNSLRAEDTAVYYCARPLWGYYALDIWGQGTLVTVSS VL: DIQLTQSPSSLSASVGDRVTITCSASISVSYLYWYQQKPGKAPKLLIYDDSSLASGVPSRFSGSGSGTDFTLTISSLQPEDFATYYCQQWSGYPYTFGQGTKVEIK"
5.52,0.00441,798000,"Anti-IL-6 antibody, heavy chain S35H, G66D, Q99H / light chain M32L, M50D, N52S, M88Q (antibody, IgG1, V domains shown, IgG1; variable domains only; VL is variant III) VH: EVQLVESGGGLVQPGGSLRLSCAASGFTFSPFAMHWVRQAPGKGLEWVAKISPGGSWTYYSDTVTDRFTFSLDTSKSTAYLQMNSLRAEDTAVYYCARHLWGYYALDIWGQGTLVTVSS VL: DIQLTQSPSSLSASVGDRVTITCSASISVSYLYWYQQKPGKAPKLLIYDDSSLASGVPSRFSGSGSGTDFTLTISSLQPEDFATYYCQQWSGYPYTFGQGTKVEIK"
0.595,0.000775,1.3e+06,"Anti-IL-6 antibody, heavy chain S35H, G66D, Q99L / light chain M32L, M50D, N52S, M88Q (antibody, IgG1, V domains shown, IgG1; variable domains only; VL is variant III) VH: EVQLVESGGGLVQPGGSLRLSCAASGFTFSPFAMHWVRQAPGKGLEWVAKISPGGSWTYYSDTVTDRFTFSLDTSKSTAYLQMNSLRAEDTAVYYCARLLWGYYALDIWGQGTLVTVSS VL: DIQLTQSPSSLSASVGDRVTITCSASISVSYLYWYQQKPGKAPKLLIYDDSSLASGVPSRFSGSGSGTDFTLTISSLQPEDFATYYCQQWSGYPYTFGQGTKVEIK"
0.0381,0.000206,5.41e+06,"Anti-IL-6 antibody, heavy chain S35H, G66D, Q99I / light chain M32L, M50D, N52S, M88Q (antibody, IgG1, V domains shown, IgG1; variable domains only; VL is variant III) VH: EVQLVESGGGLVQPGGSLRLSCAASGFTFSPFAMHWVRQAPGKGLEWVAKISPGGSWTYYSDTVTDRFTFSLDTSKSTAYLQMNSLRAEDTAVYYCARILWGYYALDIWGQGTLVTVSS VL: DIQLTQSPSSLSASVGDRVTITCSASISVSYLYWYQQKPGKAPKLLIYDDSSLASGVPSRFSGSGSGTDFTLTISSLQPEDFATYYCQQWSGYPYTFGQGTKVEIK"
2.58,0.00774,3e+06,"Anti-IL-6 antibody, heavy chain S35H, G66D, Q99G / light chain M32L, M50D, N52S, M88Q (antibody, IgG1, V domains shown, IgG1; variable domains only; VL is variant III) VH: EVQLVESGGGLVQPGGSLRLSCAASGFTFSPFAMHWVRQAPGKGLEWVAKISPGGSWTYYSDTVTDRFTFSLDTSKSTAYLQMNSLRAEDTAVYYCARGLWGYYALDIWGQGTLVTVSS VL: DIQLTQSPSSLSASVGDRVTITCSASISVSYLYWYQQKPGKAPKLLIYDDSSLASGVPSRFSGSGSGTDFTLTISSLQPEDFATYYCQQWSGYPYTFGQGTKVEIK"
